Experimental data: paper PMC8967867 (2022)

Assays:
[1] = molecular target: CID1R^AltAll, alternative reconstructed CID of the early vertebrate ancestor (1R) with the second most likely …; assay: ITC
[2] = molecular target: T1, CID1R^ML, maximum likelihood reconstructed CBP-interacting domain (CID) of the NCOA family from an early …; assay: ITC
T1 chain: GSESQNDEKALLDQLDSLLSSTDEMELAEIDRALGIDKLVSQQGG

## GSTPPQALQQLLQTLKSPSSPQQQQQVLQILKSNPQLMAAFIKQRSQHQQ (domain or fragment)
[1]
  Kd: 2200 nM

## IMPPALQQLLQTLKSPNSPQQQQQVLHILKSNPQLMAAFIKQRSQQQQ (domain or fragment)
[2]
  Kd: 9.7 µM
